Results published in patent US20260061032A1 (GI INNOVATION, published 2026).

B1: GI-108A1 (AHP04167) (Anti-CD73 sdAb-hIgG4 Fc-hIL2v3 fusion protein dimer) (Fc fusion)
chain: EVQLVESGGGLVQAGGSLRLSCVVSGRTFSNYHMGWFRQAPGKEREFVAVIGRSGGPTYYADSVKGRFTISRDNAKNTVYLQMNSLKPEDTAVYYCAGDWRNSDSPSKLKPVYDYWGQGTQVTVSSGGGGSAESKYGPPCPPCPAPEAAGGPSVFLFPPKPKDQLMISRTPEVTCVVVDVSQEDPEVQFNWYVDGVEVHNAKTKPREEQFNSTYRVVSVLTVLHQDWLNGKEYKCKVSNKGLPSSIEKTISKAKGQPREPQVYTLPPSQEEMTKNQVSLTCLVKGFYPSDIAVEWESNGQPENNYKTTPPVLDSDGSFFLYSRLTVDKSRWQEGNVFSCSVLHEALHNHYTQKSLSLSLGGGGGSGGGGSGGGGSAPTSSSTKKTQLQLEHLLLDLQMILNGINNYKNPKLTAMLTAKFYMPKKATELKHLQCLERELKPLEEVLNLAQSKNFHLRPRDLISNINVIVLELKGSETTFMCEYADETATIVEFLNRWITFCQSIISTLT
notes: Homodimer through hinge cysteines
B2: GI-108A1 (AHF10240) (Anti-CD73 sdAb-hIgG4 Fc-hIL2v3 fusion protein dimer) (Fc fusion)
chain: EVQLVESGGGVVQTGGSLRLSCAASGRTFTHLAMGWFRQAPGKEREFVAAISNSGAGTQFADSVKGRFTISRDNAKNTVYLQMNSLKPEDTAVYYCAADWGTRDSPSKLNAVYDYWGRGTQVTVSSGGGGSAESKYGPPCPPCPAPEAAGGPSVFLFPPKPKDQLMISRTPEVTCVVVDVSQEDPEVQFNWYVDGVEVHNAKTKPREEQFNSTYRVVSVLTVLHQDWLNGKEYKCKVSNKGLPSSIEKTISKAKGQPREPQVYTLPPSQEEMTKNQVSLTCLVKGFYPSDIAVEWESNGQPENNYKTTPPVLDSDGSFFLYSRLTVDKSRWQEGNVFSCSVLHEALHNHYTQKSLSLSLGGGGGSGGGGSGGGGSAPTSSSTKKTQLQLEHLLLDLQMILNGINNYKNPKLTAMLTAKFYMPKKATELKHLQCLERELKPLEEVLNLAQSKNFHLRPRDLISNINVIVLELKGSETTFMCEYADETATIVEFLNRWITFCQSIISTLT
notes: as for B1
B3: GI-108B1 (Anti-CD73 Ab-hIgG4 Fc-hIL2v3 fusion protein dimer) (antibody)
heavy: QVQLVQSGAEVKKPGSSVKVSCKFSGGSFTSYSFSWVRQAPGQGLEWMGRIIPVLTTTDYAQKFRDRVTITADESTSTAYMELSGLRSEDTAVYYCASGLKKNWYFDLWGRGALITVSSASTKGPSVFPLAPCSRSTSESTAALGCLVKDYFPEPVTVSWNSGALTSGVHTFPAVLQSSGLYSLSSVVTVPSSSLGTKTYTCNVDHKPSNTKVDKRVESKYGPPCPPCPAPEAAGGPSVFLFPPKPKDQLMISRTPEVTCVVVDVSQEDPEVQFNWYVDGVEVHNAKTKPREEQFNSTYRVVSVLTVLHQDWLNGKEYKCKVSNKGLPSSIEKTISKAKGQPREPQVYTLPPSQEEMTKNQVSLTCLVKGFYPSDIAVEWESNGQPENNYKTTPPVLDSDGSFFLYSRLTVDKSRWQEGNVFSCSVLHEALHNHYTQKSLSLSLGGGGGSGGGGSAPTSSSTKKTQLQLEHLLLDLQMILNGINNYKNPKLTAMLTAKFYMPKKATELKHLQCLERELKPLEEVLNLAQSKNFHLRPRDLISNINVIVLELKGSETTFMCEYADETATIVEFLNRWITFCQSIISTLT
light: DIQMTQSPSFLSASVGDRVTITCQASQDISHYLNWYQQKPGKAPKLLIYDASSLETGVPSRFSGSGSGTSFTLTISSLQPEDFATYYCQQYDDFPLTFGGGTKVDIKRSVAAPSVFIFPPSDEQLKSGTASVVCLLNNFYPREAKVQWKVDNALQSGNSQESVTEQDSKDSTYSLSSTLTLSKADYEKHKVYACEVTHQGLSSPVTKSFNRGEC
notes: IgG4 anti-CD73 antibody with the IL-2 variant fused to the C-terminus of each heavy chain; expressed in CHO cells, purified as a dimer

Each binder was assayed against T1, IL-2Rβγ on HEK-BLUE IL-2 reporter cells (UniProt P14784 27-551; P31785 23-369) (assay: cell-based or functional assay).
T1 sequence (looked up) 1: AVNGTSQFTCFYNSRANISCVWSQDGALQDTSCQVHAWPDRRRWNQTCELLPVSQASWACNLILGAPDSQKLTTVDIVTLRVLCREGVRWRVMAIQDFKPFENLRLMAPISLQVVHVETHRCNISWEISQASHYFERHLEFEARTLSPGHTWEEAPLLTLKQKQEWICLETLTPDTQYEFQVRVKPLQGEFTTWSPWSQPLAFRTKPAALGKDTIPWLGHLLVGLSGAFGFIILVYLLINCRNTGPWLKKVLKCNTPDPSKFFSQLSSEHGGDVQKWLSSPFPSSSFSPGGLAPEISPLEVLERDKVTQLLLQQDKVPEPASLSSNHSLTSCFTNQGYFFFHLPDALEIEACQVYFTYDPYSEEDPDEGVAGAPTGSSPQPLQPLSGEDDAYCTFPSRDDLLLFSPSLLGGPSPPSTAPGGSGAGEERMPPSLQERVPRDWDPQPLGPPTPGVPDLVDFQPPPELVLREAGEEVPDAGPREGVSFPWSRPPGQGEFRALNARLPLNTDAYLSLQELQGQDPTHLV
T1 sequence (looked up) 2: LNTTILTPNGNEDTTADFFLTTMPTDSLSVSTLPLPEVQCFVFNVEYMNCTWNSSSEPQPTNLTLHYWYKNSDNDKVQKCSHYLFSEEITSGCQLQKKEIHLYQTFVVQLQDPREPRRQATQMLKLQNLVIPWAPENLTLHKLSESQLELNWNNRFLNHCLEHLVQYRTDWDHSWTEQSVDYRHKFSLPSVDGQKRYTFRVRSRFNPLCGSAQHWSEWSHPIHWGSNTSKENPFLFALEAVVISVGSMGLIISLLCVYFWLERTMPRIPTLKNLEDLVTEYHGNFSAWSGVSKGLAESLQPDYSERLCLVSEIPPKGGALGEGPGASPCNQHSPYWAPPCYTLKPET

| Binder | EC50, SEAP reporter (JAK-STAT pathway activation) in HEK-BLUE IL-2 reporter cells |
| --- | --- |
| B1 | 0.00394 nM |
| B2 | 0.00263 nM |
| B3 | 0.00128 nM |

The binders below were run against T2, hIL-2Rαβγ on CTLL-2 cells (human, UniProt P01589 22-272; P14784 27-551; P31785 23-369) (assay: cell-based or functional assay).
T2 sequence (looked up) 1: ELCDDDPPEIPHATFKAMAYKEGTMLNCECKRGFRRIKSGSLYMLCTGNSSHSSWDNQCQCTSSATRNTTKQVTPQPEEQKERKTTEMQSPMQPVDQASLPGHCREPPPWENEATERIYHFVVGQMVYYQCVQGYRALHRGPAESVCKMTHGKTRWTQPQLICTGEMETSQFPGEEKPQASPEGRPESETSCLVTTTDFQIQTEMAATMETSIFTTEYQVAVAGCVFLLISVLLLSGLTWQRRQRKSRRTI
T2 sequence (looked up) 2: T1 sequence (looked up) 1
T2 sequence (looked up) 3: T1 sequence (looked up) 2

| Binder | EC50, CTLL-2 cell proliferation (WST-1 absorbance) | EC50 of CTLL-2 cell proliferation, relative to PROLEUKIN |
| --- | --- | --- |
| B1 | 3.93 nM | 20 fold |
| B2 | 2.02 nM | 20 fold |
| B3 | 1.7 nM | 20 fold |

These binders were tested against T3, membrane-bound human CD73 (human, UniProt P21589 27-549) (assay: cell-based or functional assay).
T3 sequence: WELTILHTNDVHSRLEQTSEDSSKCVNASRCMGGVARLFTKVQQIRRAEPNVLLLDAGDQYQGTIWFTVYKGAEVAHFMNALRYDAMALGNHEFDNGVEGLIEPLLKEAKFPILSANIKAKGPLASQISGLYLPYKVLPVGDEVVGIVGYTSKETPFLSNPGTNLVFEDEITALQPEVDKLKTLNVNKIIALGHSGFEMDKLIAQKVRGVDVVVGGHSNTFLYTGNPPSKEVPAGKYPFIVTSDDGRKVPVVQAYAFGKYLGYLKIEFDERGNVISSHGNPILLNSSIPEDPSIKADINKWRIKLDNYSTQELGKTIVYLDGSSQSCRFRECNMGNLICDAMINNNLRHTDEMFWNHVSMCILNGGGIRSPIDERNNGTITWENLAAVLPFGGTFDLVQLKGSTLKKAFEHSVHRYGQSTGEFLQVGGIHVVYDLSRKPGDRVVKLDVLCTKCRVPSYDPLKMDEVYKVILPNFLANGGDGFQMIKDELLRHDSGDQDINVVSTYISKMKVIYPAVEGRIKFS

| Binder | IC50, inhibition of membrane-bound CD73 enzyme activity on MDA-MB-231 cells (adenosine assay) |
| --- | --- |
| B1 | 5.58 nM |
| B2 | 2.75 nM |
| B3 | 3.37 nM |

Each binder was assayed against T4, hCD73 (human, UniProt P21589 27-549, limits assumed) (assay: cell-based or functional assay).
T4 sequence: T3 sequence

| Binder | IC50, inhibition of soluble CD73 enzyme activity (AMP-Glo assay, recombinant human CD73) |
| --- | --- |
| B1 | 0.102 nM |
| B2 | 0.06 nM |
| B3 | 0.126 nM |

These binders were tested against T5, hIL-2Rβ (human, UniProt P14784 27-239) (assay: SPR, Biacore T200; biotinylated CD73 on SA chip, binder bound to CD73, hIL-2Rβ as analyte).
T5 construct: also called hIL-2RB
T5 sequence (looked up): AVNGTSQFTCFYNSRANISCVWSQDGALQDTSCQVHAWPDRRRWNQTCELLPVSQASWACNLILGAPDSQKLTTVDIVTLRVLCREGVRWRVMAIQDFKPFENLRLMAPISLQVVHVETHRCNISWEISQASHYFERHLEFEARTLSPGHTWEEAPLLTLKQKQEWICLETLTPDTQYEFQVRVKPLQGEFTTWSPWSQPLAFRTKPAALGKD
Protocol: To quantitatively analyze the binding affinities to CD73 and IL-2 receptors of […] and GI-108B1, in which the anti-CD73 antibody that specifically binds to CD73 was linked to the IL-2 variant, and Aldesleukin (trade name: PROLEUKIN®, Novartis), the binding affinities were measured using SPR (surface plasmon resonance). Using a BIACORE™ T200 instrument (Cytiva), the binding affinities of GI-108A1 (AHF10240), GI-108A1 (AHP04167) and GI-108B1 to hCD73, cyCD73, mCD73, hIL-2Rα, hIL-2Rβ, and hIL-2Rβγ were analyzed. Oleclumab (Astrazeneca), produced on order from Ybiologics, Inc., was used as a control.
To analyze the binding affinity to hIL-2Ra, hIL-2Ra was […] immobilized on Sensor Chip CM5 using a His capture kit (Cytiva, USA). Each of GI-108A1 (AHF10240), GI-108A1 (AHP04167), GI-108B1 and PROLEUKIN®, diluted in HBS-EP+ buffer, was then applied for 1 minute, followed by analysis of association and dissociation. In addition, the binding affinities to hIL-2RB and hIL-2Rβγ were measured by a three-step analysis method including treating Sensor Chip SA (Cytiva, USA) with biotinylated CD73, and then binding each of GI-108A1 (AHF10240), GI-108A1 (AHP04167), GI-108B1 and PROLEUKIN® to CD73, followed by treatment with each of hIL-2RB and hIL-2Rβγ diluted in HBS-P+ buffer (Cytiva, USA). For hIL-2RB, association was performed for 1 minute and dissociation for 1 minute, and for hIL-2Rβγ, association was performed for 5 minutes and dissociation for 2 hours at each concentration, in a single cycle kinetics analysis. Each sensorgram was normalized and subtracted compared to a blank cell to calculate affinity.

| Binder | Kd |
| --- | --- |
| B1 | 2070 nM |
| B2 | 2500 nM |
| B3 | 2290 nM |
